Assay results from publication PMC11804907.

Experiments:
Assay in all cases: synthetic bead recruitment assay in embryos (fluorescence intensity at ALFA-tag-Nanobody-coupled beads)
AurA-GFP = AurA-GFP (UniProt Q27393); conditions: beads injected into embryos expressing mCherry-TACC and AurA-GFP with mRNA encoding ALFA-tagged Spd-2; beads-only background est. 0.5; parent: est. 2.1; read off a plot
Polo-GFP = Polo-GFP (UniProt P52304); conditions: beads injected into embryos expressing RFP-Cnn and Polo-GFP with mRNA encoding ALFA-tagged Spd-2; beads-only background est. 1.0; parent: est. 2.0; read off a plot
Chain of UniProt P52304 (P52304 whole entry): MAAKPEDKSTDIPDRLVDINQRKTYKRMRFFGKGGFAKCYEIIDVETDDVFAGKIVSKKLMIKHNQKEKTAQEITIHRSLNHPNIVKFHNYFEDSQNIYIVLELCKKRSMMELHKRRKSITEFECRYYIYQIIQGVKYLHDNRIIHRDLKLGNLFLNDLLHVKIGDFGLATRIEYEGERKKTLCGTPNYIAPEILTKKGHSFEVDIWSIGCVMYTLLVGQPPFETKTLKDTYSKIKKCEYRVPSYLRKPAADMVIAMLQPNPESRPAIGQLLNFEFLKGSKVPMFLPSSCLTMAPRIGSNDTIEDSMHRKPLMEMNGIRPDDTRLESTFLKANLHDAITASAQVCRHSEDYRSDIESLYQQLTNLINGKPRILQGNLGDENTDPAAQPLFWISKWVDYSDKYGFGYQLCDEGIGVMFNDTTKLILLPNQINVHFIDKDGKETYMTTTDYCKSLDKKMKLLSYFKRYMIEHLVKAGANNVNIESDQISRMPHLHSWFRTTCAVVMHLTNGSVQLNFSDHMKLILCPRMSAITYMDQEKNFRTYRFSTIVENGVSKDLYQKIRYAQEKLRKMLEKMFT

RFP-Cnn = RFP-Cnn (UniProt P54623); conditions: beads injected into embryos expressing RFP-Cnn and Polo-GFP with mRNA encoding ALFA-tagged Spd-2; beads-only background est. 0.75; parent: est. 2.4; read off a plot
Chain of UniProt P54623 (P54623 whole entry): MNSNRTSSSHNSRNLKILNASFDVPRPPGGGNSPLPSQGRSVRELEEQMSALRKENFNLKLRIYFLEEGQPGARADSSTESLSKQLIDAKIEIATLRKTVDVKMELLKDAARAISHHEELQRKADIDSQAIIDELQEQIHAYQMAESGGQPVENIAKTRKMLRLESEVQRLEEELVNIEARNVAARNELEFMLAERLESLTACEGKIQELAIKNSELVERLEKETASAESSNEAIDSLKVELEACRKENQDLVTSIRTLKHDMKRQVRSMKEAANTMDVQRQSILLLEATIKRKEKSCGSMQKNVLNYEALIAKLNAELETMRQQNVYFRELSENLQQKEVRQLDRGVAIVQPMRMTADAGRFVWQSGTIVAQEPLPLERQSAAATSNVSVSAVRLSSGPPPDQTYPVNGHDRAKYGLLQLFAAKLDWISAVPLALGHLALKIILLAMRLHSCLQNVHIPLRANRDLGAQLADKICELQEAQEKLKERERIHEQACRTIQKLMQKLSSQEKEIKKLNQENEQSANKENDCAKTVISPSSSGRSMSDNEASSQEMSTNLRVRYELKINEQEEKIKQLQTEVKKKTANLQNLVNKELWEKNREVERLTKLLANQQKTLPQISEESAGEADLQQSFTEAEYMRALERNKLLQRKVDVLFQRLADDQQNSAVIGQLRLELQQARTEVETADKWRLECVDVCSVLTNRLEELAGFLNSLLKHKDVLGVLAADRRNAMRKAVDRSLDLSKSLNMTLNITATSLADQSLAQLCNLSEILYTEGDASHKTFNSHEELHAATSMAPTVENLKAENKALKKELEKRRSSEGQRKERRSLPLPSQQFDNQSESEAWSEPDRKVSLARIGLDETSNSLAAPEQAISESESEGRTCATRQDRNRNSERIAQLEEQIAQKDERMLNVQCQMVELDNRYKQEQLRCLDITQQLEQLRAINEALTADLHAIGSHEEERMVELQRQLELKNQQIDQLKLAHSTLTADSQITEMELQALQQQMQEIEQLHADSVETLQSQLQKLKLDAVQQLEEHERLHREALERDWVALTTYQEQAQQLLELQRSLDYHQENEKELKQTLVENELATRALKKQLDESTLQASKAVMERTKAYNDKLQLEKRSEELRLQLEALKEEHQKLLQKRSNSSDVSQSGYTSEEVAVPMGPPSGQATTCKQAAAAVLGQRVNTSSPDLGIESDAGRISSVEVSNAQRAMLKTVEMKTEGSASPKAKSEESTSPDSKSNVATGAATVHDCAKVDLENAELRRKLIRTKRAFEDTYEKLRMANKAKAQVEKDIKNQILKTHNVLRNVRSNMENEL

mCherry-TACC = mCherry-TACC (UniProt Q9VN51); conditions: beads injected into embryos expressing mCherry-TACC and AurA-GFP with mRNA encoding ALFA-tagged Spd-2; beads-only background est. 0.65; parent: est. 2.0; read off a plot
Chain of UniProt Q9VN51 (Q9VN51 entry or part of it): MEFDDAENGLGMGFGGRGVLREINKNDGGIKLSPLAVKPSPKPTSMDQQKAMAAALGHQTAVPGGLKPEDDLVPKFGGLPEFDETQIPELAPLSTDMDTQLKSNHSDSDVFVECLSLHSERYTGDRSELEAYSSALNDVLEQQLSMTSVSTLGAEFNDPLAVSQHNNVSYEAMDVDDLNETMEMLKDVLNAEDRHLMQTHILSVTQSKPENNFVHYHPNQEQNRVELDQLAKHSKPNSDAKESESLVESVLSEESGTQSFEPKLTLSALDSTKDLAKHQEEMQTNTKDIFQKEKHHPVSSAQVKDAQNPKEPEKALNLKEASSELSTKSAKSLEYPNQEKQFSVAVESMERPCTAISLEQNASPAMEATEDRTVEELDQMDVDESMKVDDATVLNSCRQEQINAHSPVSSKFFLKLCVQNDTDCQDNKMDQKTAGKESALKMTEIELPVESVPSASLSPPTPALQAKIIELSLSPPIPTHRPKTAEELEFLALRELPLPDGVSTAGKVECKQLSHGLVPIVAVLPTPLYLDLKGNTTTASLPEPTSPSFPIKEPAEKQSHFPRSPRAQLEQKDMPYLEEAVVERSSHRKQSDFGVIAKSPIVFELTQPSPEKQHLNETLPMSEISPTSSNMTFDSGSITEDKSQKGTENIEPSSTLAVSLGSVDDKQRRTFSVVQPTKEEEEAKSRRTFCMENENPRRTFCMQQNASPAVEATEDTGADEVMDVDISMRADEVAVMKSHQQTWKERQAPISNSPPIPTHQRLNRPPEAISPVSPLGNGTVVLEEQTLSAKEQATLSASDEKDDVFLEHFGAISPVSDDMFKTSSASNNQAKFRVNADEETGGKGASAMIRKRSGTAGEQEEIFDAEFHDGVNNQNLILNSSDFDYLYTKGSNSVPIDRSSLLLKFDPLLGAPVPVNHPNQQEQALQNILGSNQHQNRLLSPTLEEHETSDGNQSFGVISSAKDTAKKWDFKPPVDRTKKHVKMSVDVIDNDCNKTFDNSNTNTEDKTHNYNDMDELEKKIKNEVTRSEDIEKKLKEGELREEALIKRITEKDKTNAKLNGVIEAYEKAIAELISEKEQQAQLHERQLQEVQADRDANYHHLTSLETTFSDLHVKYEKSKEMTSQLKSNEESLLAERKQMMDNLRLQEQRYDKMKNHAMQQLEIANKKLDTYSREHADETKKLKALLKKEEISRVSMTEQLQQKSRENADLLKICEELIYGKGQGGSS

Chain of UniProt Q27393 (Q27393 entry or part of it): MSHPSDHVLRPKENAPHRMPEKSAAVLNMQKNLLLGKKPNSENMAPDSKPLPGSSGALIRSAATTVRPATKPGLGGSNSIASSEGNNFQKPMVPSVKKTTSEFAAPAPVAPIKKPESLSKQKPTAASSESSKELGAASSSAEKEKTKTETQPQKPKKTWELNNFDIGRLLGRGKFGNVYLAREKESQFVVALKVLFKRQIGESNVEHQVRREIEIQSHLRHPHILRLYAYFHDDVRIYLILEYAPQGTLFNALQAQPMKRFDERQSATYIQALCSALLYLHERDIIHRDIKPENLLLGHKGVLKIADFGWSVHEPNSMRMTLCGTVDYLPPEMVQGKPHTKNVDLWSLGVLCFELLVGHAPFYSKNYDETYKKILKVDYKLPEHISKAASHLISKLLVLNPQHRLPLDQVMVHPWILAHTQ

response (AurA-GFP): 2.3 A.U. | response (Polo-GFP): 0.95 A.U. | response (RFP-Cnn): 0.85 A.U. | response (mCherry-TACC): 2.3 A.U.
Substance: WT Spd-2-ALFA (from UniProt Q9VV79) ∆Polo (all 34 S-S/T motifs mutated to T-S/T; individual positions not printed)
